One may read the IC50 as the point on the concentration scale where inhibition reaches its midpoint.

Assay [1] deals with T1, cyno MerTK extracellular domain (ECD), recombinant (cynomolgus monkey, UniProt Q12866 21-505 (human entry)).
T1 construct: also called cynomolgus MerTK; not shown: polyHis tag or TEVS/Thrombin/murine IgG2a Fc tag
T1 chain: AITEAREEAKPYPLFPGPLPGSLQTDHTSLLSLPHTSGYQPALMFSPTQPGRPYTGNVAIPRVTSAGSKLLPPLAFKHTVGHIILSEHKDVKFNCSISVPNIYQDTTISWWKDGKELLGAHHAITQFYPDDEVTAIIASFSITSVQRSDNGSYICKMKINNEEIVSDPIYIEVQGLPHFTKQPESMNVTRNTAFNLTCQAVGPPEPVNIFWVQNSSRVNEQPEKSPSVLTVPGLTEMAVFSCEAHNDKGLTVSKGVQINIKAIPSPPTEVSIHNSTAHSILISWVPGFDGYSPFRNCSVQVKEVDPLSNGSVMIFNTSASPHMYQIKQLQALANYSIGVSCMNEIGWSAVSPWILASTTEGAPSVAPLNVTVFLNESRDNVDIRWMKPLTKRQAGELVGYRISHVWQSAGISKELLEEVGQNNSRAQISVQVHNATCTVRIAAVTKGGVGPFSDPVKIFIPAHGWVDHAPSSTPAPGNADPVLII
Description: SPR, Carterra LSA.

Assay [2] addresses T2, human MerTK endogenously expressed on cells (SK-MEL-5 cells; human macrophages) (human, UniProt Q12866 21-999).
T2 sequence: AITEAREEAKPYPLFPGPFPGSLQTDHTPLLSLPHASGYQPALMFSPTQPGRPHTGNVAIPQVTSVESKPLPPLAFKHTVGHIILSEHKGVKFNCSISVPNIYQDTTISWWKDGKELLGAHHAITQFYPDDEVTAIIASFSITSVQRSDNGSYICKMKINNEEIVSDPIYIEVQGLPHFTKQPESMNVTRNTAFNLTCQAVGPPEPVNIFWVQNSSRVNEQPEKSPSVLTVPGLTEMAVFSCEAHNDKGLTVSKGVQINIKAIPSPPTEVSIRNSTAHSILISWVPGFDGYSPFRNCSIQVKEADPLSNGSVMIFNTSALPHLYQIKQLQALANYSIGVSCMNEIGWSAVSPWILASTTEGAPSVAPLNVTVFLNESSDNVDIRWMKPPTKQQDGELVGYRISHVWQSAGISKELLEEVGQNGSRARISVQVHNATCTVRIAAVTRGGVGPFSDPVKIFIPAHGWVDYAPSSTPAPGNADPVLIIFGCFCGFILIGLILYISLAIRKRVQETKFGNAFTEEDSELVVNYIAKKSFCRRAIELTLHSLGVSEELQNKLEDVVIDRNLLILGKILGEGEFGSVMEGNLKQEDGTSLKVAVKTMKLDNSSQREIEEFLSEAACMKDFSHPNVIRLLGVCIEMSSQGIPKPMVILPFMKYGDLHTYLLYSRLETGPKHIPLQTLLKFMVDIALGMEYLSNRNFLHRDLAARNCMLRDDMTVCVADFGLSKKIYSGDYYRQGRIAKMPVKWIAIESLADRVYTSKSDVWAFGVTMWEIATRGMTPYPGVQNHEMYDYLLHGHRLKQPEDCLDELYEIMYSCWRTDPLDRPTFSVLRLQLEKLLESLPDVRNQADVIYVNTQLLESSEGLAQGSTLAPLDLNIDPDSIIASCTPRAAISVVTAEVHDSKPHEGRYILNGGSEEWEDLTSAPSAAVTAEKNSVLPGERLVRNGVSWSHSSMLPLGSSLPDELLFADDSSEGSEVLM
As to the kind of experiment: cell-based or functional assay.

Assay [3] has as its target T3, Recombinant human MerTK human Fc Chimera protein (R&D systems, Cat #391-MR-100) (human, UniProt Q12866 26-499, limits assumed).
T3 construct: Bought; also called recombinant human MerTK protein; MerTK-Fc
T3 sequence: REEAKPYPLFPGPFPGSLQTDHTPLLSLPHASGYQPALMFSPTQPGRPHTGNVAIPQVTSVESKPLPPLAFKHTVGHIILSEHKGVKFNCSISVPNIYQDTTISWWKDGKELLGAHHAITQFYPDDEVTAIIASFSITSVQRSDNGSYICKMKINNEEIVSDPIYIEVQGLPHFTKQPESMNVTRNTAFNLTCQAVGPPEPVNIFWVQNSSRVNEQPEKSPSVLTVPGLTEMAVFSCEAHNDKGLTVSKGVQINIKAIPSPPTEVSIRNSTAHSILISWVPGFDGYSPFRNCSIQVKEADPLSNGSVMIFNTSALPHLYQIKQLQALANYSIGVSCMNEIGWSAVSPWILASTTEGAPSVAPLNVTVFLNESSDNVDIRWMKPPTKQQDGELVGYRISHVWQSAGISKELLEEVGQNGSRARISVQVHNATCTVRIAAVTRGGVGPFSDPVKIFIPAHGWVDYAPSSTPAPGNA
Description: competition ELISA, His-ProS on captured MerTK-Fc. On the procedure: Rabbit anti-human IgG polyclonal antibody (Jackson ImmunoResearch, Cat #309-005-008) was captured to a high-protein binding plate at 2 μg/ml 4° C. overnight. After washing with 0.05% Tween20 in PBS three times, 5% BSA in PBS was added for 1 hour. Recombinant human MerTK human Fc Chimera protein (R&D systems, Cat #391-MR-100) was added at 2 μg/ml for 1 hour and the plates were then washed. Anti-MerTK antibodies were titrated to final concentration range of between 66.6 nM to 4 pM and then 40 μl of serially diluted antibody and 40 μl of His tag-conjugated recombinant Gas6 protein (R&D systems, Cat #885-GSB-050) at 3 μg/ml or His tag-conjugated recombinant ProS protein (R&D systems, Cat #9489-PS-100) at 20 μg/ml. After a further incubation for 1 hour, plates were washed and incubated for 1 hour with HRP-conjugated anti-6×His tag antibody (Abcam, Cat #ab1187). Plates were then washed and an HRP substrate (TMB) was used to develop the plates. After sufficient color change was observed, the reaction was stopped by adding 50 μl 2N H₂SO₄ and the OD was measured using a spectrophotometer (BioTek).
From these experiments, IC50 values [nM] were determined using OD450 values obtained from the dose-response curves analyzed with Prism software. Table 14 and Table 15 show IC50 values determined for anti-MerTK antibody blocking of Gas6 ligand binding and ProS ligand binding to MerTK. […] Dashes indicate lack of significant blocking; “n.a.” indicates data not available.

B1: MTK-09 (antibody, human IgG1, V domains shown)
VH: QVQLQQSGAELVRPGASVKISCKAFGYTFTNHHIKWVKQRPGQGLDWIGYIDPYNDYTTYNQNFKGKATLTVDKSSSTAYMELSSLTSEDSAVYYCARRAYDGYYVDWYFDVWGAGTTVTVSS
VL: DIVMTQSHKFMSTSVGDRVSITCKASQDVTTSVAWYHQKPGQSPELLIYSASYRYTGVPDRFTGSGSGTDFTFTISSVQAEDLAIYYCQQHYSTPLTFGSGTKLQLK
Turning to B1, the binding result in assay [1] is given as “binds”. In addition, the “Gas6-mediated pAKT activity, average IC50, human M2c macrophages” value in assay [2] is 1.67 nM. Further, the IC50 in assay [3] worked out at 7.84 nM.

The values above are taken from patent publication US20210261685A1 (Alector, published 2021).
